Experimental findings from patent US20110250207A1 (OREGON HEALTH AND SCIENCE UNIVERSITY, published 2011) are described below.

Series [1] concerns the target fXI with Lys^83 and Gln^84 replaced with alanine, P03951.
Series [2] concerns the target T1, murine factor XI (murine, UniProt Q91Y47 19-624).
T1 construct: also called murine fXI (M); recombinant murine fXI
Kind of series: immunoblot of recombinant proteins with 14E11 (FIG. 10A). In general terms: In western blotting, separated proteins are transferred to a membrane and probed.

The target of series [3] is T2, cow fXI (cattle, UniProt Q5NTB3 19-625).
T2 construct: mature; Endogenous protein immunoprecipitated from plasma; also called cattle fXI
Briefly: immunoprecipitation from plasma with 14E11 beads, western blot with biotinylated 14E11.
Procedure: Plasma was obtained from human, cattle, horse, pig, rabbit, raccoon, tiger, baboon, cat, chicken, dog African elephant and llama subjects, and serum was obtained from anteater. Plasma from a fXI-deficient human subject was used as a negative control. Plasma or serum (500 μl) was collected into sodium citrate and mixed with 500 μl Tris-HCl. […] The beads were washed once with 1 ml Tris-HCl, then eluted with 50 μl of non-reducing SDS-sample buffer.

B1: activated factor XII (protein)
chain: IPPWEAPKEHKYKAEEHTVVLTVTGEPCHFPFQYHRQLYHKCTHKGRPGPQPWCATTPNFDQDQRWGYCLEPKKVKDHCSKHSPCQKGGTCVNMPSGPHCLCPQHLTGNHCQKEKCFEPQLLRFFHKNEIWYRTEQAAVARCQCKGPDAHCQRLASQACRTNPCLHGGRCLEVEGHRLCHCPVGYTGAFCDVDTKASCYDGRGLSYRGLARTTLSGAPCQPWASEATYRNVTAEQARNWGLGGHAFCRNPDNDIRPWCFVLNRDRLSWEYCDLAQCQTPTQAAPPTPVSPRLHVPLMPAQPAPPKPQPTTRTPPQSQTPGALPAKREQPPSLTRNGPLSCGQRLRKSLSSMTRVVGGLVALRGAHPYIAALYWGHSFCAGSLIAPCWVLTAAHCLQDRPAPEDLTVVLGQERRNHSCEPCQTLAVRSYRLHEAFSPVSYQHDLALLRLQEDADGSCALLSPYVQPVCLPSGAARPSETTLCQVAGWGHQFEGAEEYASFLQEAQVPFLSLERCSAPDVHGSSILPGMLCAGFLEGGTDACQGDSGGPLVCEDQAAERRLTLQGIISWGSGCGDRNKPGVYTDVAYYLAWIREHTVS
With B1, in series [1], the “rate of activation in solution relative to fXI^WT” value is given as “about 65% of the rate of fXI^WT” and the “specific activity in a contact activation initiated clotting assay relative to fXI^WT” value was 100-150% of the specific activity of fXI^WT.

B2: monoclonal antibody 14E11 (antibody, V domains shown)
VH: QVQLEESGPGLVAPSQSLSITCTVSGFSLTGYGIYWVRQPPGKGLEWLGMIWGDGRTDYNSALKSRLSISKDNSKSQVFLKMNSLQTDDTARYYCARDYYGSKDYWGQGTTLTVSS
VL: DIVMTQSHKFMSTSVGDRVSITCKASQDVSTAVAWYQQKPGQSPKLLIYLTSYRNTGVPDRFTGSGSGTDFTFTISSVQAEDLAVYYCQQHYKTPYSFGGGTKLERLR
notes: also called anti-murine fXI IgG 14E11; anti-fXI IgG 14E11
For B2, the binding result in series [2] and in series [3] was “binds” each time.
